Reference: US11499162B2, “Plants having increased tolerance to herbicides” (BASF SE, priority 2016, dated 2022)
Changes are numbered by the printed parent chain. Names may count otherwise.

B1: N70S: mutated TriA variant of SEQ ID NO: 2 (protein)
chain: MQTLSIQHGTLVTMDQYRRVLGDSWVHVQDGRIVALGVHAESVPPPADRVIDARGKVVLPGFINAHTHVSQILLRGGPSHGRQLYDWLFNVLYPGQKAMRPEDVAVAVRLYCAEAVRSGITTINDNADSAIYPGNIEAAMAVYGEVGVRVVYARMFFDRMDGRIQGYVDALKARSPQVELCSIMEETAVAKDRITALSDQYHGTAGGRISVWPAPAITPAVTVEGMRWAQAFARDRAVMWTLHMAESDHDERLHWMSPAEYMECYGLLDERLQVAHCVYFDRKDVRLLHRHNVKVASQVVSNAYLGSGVAPVPEMVERGMAVGIGTDDGNCNDSVNMIGDMKFMAHIHRAVHRDADVLTPEKILEMATIDGARSLGMDHEIGSIETGKRADLILLDLRHPQTTPHHHLAATIVFQAYGNEVDTVLIDGNVVMENRRLSFLPPERELAFLEEAQSRATAILQRANMVANPAWRSL
modifications: Pseudomonas
B2: Q71NL92A: mutated TriA variant of SEQ ID NO: 2 (protein)
chain: B1 chain with S70N, Q71N, L92A
modifications: Pseudomonas
B3: F157S: mutated TriA variant of SEQ ID NO: 2 (protein)
chain: B1 chain with S70N, F157S
modifications: Pseudomonas
B4: Q71V: mutated TriA variant of SEQ ID NO: 2 (protein)
chain: B1 chain with S70N, Q71V
modifications: Pseudomonas
B5: Q71NL92AY93L: mutated TriA variant of SEQ ID NO: 2 (protein)
chain: B1 chain with S70N, Q71N, L92A, Y93L
modifications: Pseudomonas
B6: Q71NL92AD128A: mutated TriA variant of SEQ ID NO: 2 (protein)
chain: B1 chain with S70N, Q71N, L92A, D128A
modifications: Pseudomonas
B7: Q71NL88AL92A: mutated TriA variant of SEQ ID NO: 2 (protein)
chain: B1 chain with S70N, Q71N, L88A, L92A
modifications: Pseudomonas
B8: Q71NL92AY93F: mutated TriA variant of SEQ ID NO: 2 (protein)
chain: B1 chain with S70N, Q71N, L92A, Y93F
modifications: Pseudomonas
B9: Q71S: mutated TriA variant of SEQ ID NO: 2 (protein)
chain: B1 chain with S70N, Q71S
modifications: Pseudomonas
B10: Q71NL92AD128G: mutated TriA variant of SEQ ID NO: 2 (protein)
chain: B1 chain with S70N, Q71N, L92A, D128G
modifications: Pseudomonas

Type: biochemical
Settings: pH 7.2
Method: EXAMPLE 3: Protein Purification. TriA and variants thereof were produced in E. coli BL21(DE3) Gold (Agilent Technologies, Germany). Therefore E. coli was transformed with appropriate pET24d N-HIS tag expression vector and chaperone plasmid pGro7 (chaperones groEL and groES). Bacterial strains were grown at 30° C. in 100 mL LB for 20 h and protein expression induced with 0.1 mM IPTG at 25° C. for 20 hs. Cells were harvested by centrifugation at 3000 rpm at 4° C. for 20 min, resuspended in Bug Buster protein extraction reagent (Novagen, Germany) according to manufactures instructions. Lysates were clarified by centrifugation. Samples of bovine serum albumin ([…]) were loaded onto each gel analyzed by densitometry to provide an internal standard. Protein determinations were verified using Coomassie protein assay dye, according to manufactures instruction (Thermo Scientific; USA). The HIS-tagged enzymes were purified by metal ion affinity chromatography using Ni-IDA 1000 kit (Macherey-Nagel, Germany) following manufactures instructions. Protein purity was accessed by SDS-PAGE using NuPAGE Novex 4-12% Bis-Tris pre-cast gels (Life Technologies; USA) stained with Coomassie Brilliant Blue (Serva, Germany). Protein concentrations were estimated by measuring absorbance at 280 nm using Lambda Bio+(Perkin Elmer, USA). EXAMPLE 4: Enzyme kinetics. Resting cell suspension containing triA gene were incubated with various azines, melamine and atrazine and the culture filtrate was analyzed by UPLC-HR-MS. Substrates were obtained either from Sigma-Aldrich or synthesized internally. Synthetic standards and enzyme reaction products were analysed by UPLC-HR-MS (Thermo/Dionex UPLC UltiMate3000 coupled to a QExactive high resolution mass spectrometer). A Waters Acquity HSS T3 column (2.1 mm; 100 mm; […]) was used with a mobile phase water/acetonitrile (0.1% formic acid) with a flow rate of […]. Enzymes were used solved 25 mM sodium phosphate buffer (pH 7.2) with substrate concentration in the range of 1 nM to 10 nM at 30° C. Over time, the original azine peak disappeared whereas the formed OH-Metabolite (reaction product) increased. The product was identified by determination of the exact formula and by analysis of the accurate MS-MS fragments. Moreover for some of the formed products authentic standards were co-eluted. Degradation in % was calculated against the cells harboring the empty vector as control.

Row | Molecule | Degradation in % of 6-cyclopentyl-N4-(2,3,4,5,6-pentafluorophenyl)-1,3,5-triazine-2,4-diamine | Degradation in % of Melamine
1 | B1 | 0% | 0%
2 | B2 | 99% | 87%
3 | B3 | 0% | 10%
4 | B4 | 0% | 0%
5 | B5 | 100% | 99%
6 | B6 | 98% | 0%
7 | B7 | 64% | 40%
8 | B8 | 100% | 78%
9 | B9 | 0% | 43%
10 | B10 | 61% | 0%
